Laboratory results: PMC7900760, “Perilipin 5 S155 phosphorylation by PKA is required for the control of hepatic lipid metabolism and glycemic control” (Journal of Lipid Research, 2021)
Positions count from the first letter of the chain named. Names and notes keep the numbering of the source. Values belong to the binder of their own block, whether it stands above or below them.

Experiments:
[1] = target: T1, ATGL-CFP (adipose triglyceride lipase fused to CFP) (UniProt Q8BJ56 1-486); experiment: FRET or BRET; phasor-based FLIM-FRET in live HeLa cells transiently co-transfected with a CFP donor (ATGL-CFP or ABHD5-CFP) and a YFP acceptor (PLIN5-YFP or PLIN5 S155A-YFP); 37°C, 5% CO2; before and after 20 μM forskolin; conditions: partners not purified
T1 construct: Adipose triglyceride lipase (ATGL); source: HeLa cells, transiently transfected (Lipofectamine 3000), in live cells
T1 sequence (looked up): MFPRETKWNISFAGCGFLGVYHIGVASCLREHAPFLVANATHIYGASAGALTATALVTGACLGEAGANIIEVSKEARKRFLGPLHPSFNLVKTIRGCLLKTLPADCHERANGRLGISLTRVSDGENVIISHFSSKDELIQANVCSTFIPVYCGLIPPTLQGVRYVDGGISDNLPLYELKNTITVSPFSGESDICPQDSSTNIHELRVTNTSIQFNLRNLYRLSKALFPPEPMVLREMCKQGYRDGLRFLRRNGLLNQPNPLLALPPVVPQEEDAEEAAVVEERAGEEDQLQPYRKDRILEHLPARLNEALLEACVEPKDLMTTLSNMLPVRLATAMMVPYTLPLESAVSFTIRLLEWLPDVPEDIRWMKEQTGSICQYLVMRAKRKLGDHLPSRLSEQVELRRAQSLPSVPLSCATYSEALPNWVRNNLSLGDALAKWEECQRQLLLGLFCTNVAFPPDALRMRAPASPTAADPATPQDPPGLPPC

[2] = target: T2, ABHD5-CFP (α-β hydrolase domain-containing 5 fused to CFP) (UniProt Q9DBL9 1-351); experiment: as above; conditions: partners not purified
T2 construct: α-β hydrolase domain-containing 5 (ABHD5, also known as CGI-58); also called CGI-58; source: HeLa cells, transiently transfected (Lipofectamine 3000), in live cells
T2 sequence (looked up): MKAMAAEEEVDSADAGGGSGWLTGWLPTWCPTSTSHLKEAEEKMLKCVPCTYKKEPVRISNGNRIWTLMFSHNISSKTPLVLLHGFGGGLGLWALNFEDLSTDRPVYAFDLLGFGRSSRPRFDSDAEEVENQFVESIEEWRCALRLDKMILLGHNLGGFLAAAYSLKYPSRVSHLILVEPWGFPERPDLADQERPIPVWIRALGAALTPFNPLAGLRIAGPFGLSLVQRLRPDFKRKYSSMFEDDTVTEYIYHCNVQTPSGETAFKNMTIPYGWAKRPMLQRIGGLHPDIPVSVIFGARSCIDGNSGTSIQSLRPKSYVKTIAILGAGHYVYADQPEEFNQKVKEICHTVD

FRET efficiency [1]: 20% | FRET efficiency [2]: 25%
B1: PLIN5-YFP (perilipin 5 fused to YFP) (natural protein, mouse, UniProt Q8BVZ1 1-463, looked up)
chain: MDQRGEDTTLAPHSRMSGDQTAQDPGSSLGELDQQNVVNRVVALPLVKATCTAVSSAYNSAKDRHPLLGSACRLAEHCVCSVTTCALDHAQPLLEHLQPQLATVNDLACRGLDKLEEKLPFLQQPSDMVVTSAKDTVAKSVTGMVDLAQRGRRWSGELRRSMSQAMDMVLGKSEKLVDRFLPMTEAELAVLAAEAEGPEVGTVEEQRQQQGYFVRLGSLSARLRHLAYEHSLGKLRQSKHRTQEMLAQLQETLELIQHMQRGASPSPTFHPPKTQELWGSWSPCLENGRSHSEVELETLALSRSLTLELQNAVDALAGCVRGLPPSAQAKVAEVQRSVDALQATFADAHCLGDVAPTALAEGRGSVARAHACVDEFLDLVLRAMPLPWLVGPFAPILVEQSEPLINLATCVDEVVGDPDPRWAHMDWPAQKRAWEAESADPGGQEAEPPRGQGKHTMMPELDF
notes: Perilipin 5 (PLIN5), murine; also called wild-type PLIN5; source: HeLa cells, transiently transfected (Lipofectamine 3000), in live cells

FRET efficiency [1]: 20% | FRET efficiency [2]: 25%
B2: PLIN5 S155A-YFP (natural protein, mouse, UniProt Q8BVZ1 1-463, looked up)
chain: B1 chain with S155A
notes: Perilipin 5 (PLIN5), murine, with the phosphorylation-defective S155A mutation; also called phospho-mutant S155A; source: HeLa cells, transiently transfected (Lipofectamine 3000), in live cells
